According to the supplement of paper PMC10567573:
± gives the standard deviation.

Assay: protein stability index of a GFP-peptide fusion (GPS, HEK-293T) (PSI 1-6); higher = more stable
Conditions: c terminus: a fixed tail appended
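Also: 24-mer peptide tiles fused after GFP, lentivirally expressed, FACS-sorted into six equal bins by GFP/DsRed ratio, decoded by Illumina sequencing, PSI is the read-weighted mean bin number.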

Sequence | protein stability index (treatment: DMSO) | protein stability index (treatment: MLN4924 1 uM, 8 h)
MVGPLAQDPQSPMAGLRWLDSWDF [POMT2] | 2.66 ± 0.42 | 2.75 ± 0.41
RTKVVKPYSTVDNPVYYGPSDFFI [EFHC1] | 2.35 ± 0.22 | 2.42 ± 0.36
EPSLKATMGLAGRARVKEKFSPEA [ALG2] | 4.6 ± 0.34 | 4.94 ± 0.19
HTRSITSCCFDPDSQRVASVSLDR [WDR88] | 3.53 ± 0.4 | 3.44 ± 0.39
LLFKLVAPVTFRHHRYDDLVRTLY [CPN1] | 2.65 ± 0.63 | 2.83 ± 0.56
PVLEDNYMYLVIEELTREAVAVDV [HAGHL] | 2.34 ± 0.57 | 2.47 ± 0.17
NNLEPILEGYISNLRKQLETLSGD [KRT71] | 3.07 ± 0.26 | 3.18 ± 0.35
AKLAADDFRTKYETELSLRQLVEA [KRT36] | 3.73 ± 0.33 | 3.78 ± 0.061
SYAHGWMFQGWNCGDYFPDGITNG [CPN1] | 2.35 ± 0.18 | 2.27 ± 0.17
GRYVKENCKPLKSYMLQDSLEHVQ [CLK3] | 3.1 ± 0.23 | 3.08 ± 0.48
SAPVETPRGKPPLNTRSQAPLLRW [HMOX1] | 3.64 ± 0.26 | 3.72 ± 0.24
VILLPYVSKVTGWCRDRLLGHREP [TMEM175] | 2.28 ± 0.3 | 2.04 ± 0.36
SQKEMDKAETKTKKAAESLRRSVE [FCHO1] | 5.24 ± 0.29 | 5.23 ± 0.38
RSWMFRRGPLNSDRSDYFAAWGAR [TRIM43] | 2.5 ± 0.14 | 2.62 ± 0.47
SLGAVGEGFHNYHHSFPYDYSASE [SCD] | 3.81 ± 0.24 | 3.88 ± 0.28
GTILNYLRDGAVPLPESRREIEEL [KCTD10] | 3.98 ± 0.19 | 4.15 ± 0.073
LDVIERDLHRQFPFHEMFVSRGGH [TBC1D10A] | 2.98 ± 0.3 | 2.86 ± 0.21
DPGHCFAESRELPVRCAGDWLPRG [ALG2] | 3.1 ± 0.38 | 3.05 ± 0.25
MAGGPPNTKAEMEMSLAEELNHGR [FATE1] | 5.17 ± 0.14 | 5.22 ± 0.27
GRIIAVFKPKNEEPYGHLNPKWTK [PI4K2A] | 2.09 ± 0.24 | 2.2 ± 0.44
AGGDATENFEDVGHSTDAREMSKT [CYB5A] | 5.44 ± 0.28 | 5.3 ± 0.15
LQHVSEPQAHQESTRGAARPAQAI [SPACA9] | 4.96 ± 0.19 | 5.04 ± 0.098
YSGGGYYLDLPGSRQGSAEALRAL [PKD2L1] | 2.5 ± 0.48 | 2.92 ± 0.89

Sequence | protein stability index (treatment: DMSO) | protein stability index (treatment: MLN4924 1 uM, 8 h)
PLGVDESLFSYGLRESIASYLSLT [SLA] | 2.03 ± 0.19 | 2.3 ± 0.13
IGTPPSVLKRQRKRRVALSPVTEN [MYBL2] | 4.22 ± 0.56 | 4.49 ± 0.14
SFFVPRPTPSTPRPTPQDWLHRRA [ADAMTS4] | 3.4 ± 0.21 | 3.4 ± 0.084
QGIGSKIIKKVAEVALDKGCSQFR [SAT2] | 2.44 ± 0.68 | 2.27 ± 0.36
ACGSSSYVASIVDGGESRSEKGDS [RBMY1A1] | 5.22 ± 0.31 | 5.16 ± 0.35
DELQQSFQKSHNSLQRWEHLKKVA [PRIM1] | 3.76 ± 0.38 | 3.88 ± 0.45
LQGLIPGARYEVTVVSVRGFEESE [TNXB] | 2.19 ± 0.34 | 2.44 ± 0.78
LATFSSDWEIQEDSRLMCSSVQKA [CCDC3] | 4 ± 0.44 | 3.9 ± 0.29
RVPAGIFKHTLSISRALLSDVVPE [MFSD9] | 2.82 ± 0.74 | 3.02 ± 0.22
KLDFKEKAQAKVGSLDNAHHVPGG [MAP2] | 4.73 ± 0.2 | 4.7 ± 0.16
ETILNAFKMLDPDGKGKINKEYIK [MYL5] | 2.96 ± 0.31 | 3.17 ± 0.41
PIFQDSQDTEVFSWSDNERSSSRI [FAM104B] | 4.34 ± 0.55 | 4.41 ± 0.26
CVTPNGRPISGTAVAHKTPRCPGS [SMOC2] | 2.98 ± 0.67 | 3.89 ± 0.34
CQFRPPVRVNDGGGSHPSRPNSRH [VDR] | 4.55 ± 0.34 | 4.77 ± 0.076
ELEKLAEKNIILEEKIQVLQQQNE [MTUS2] | 4.63 ± 0.32 | 4.53 ± 0.22
RAVDWWALGILIFEMLSGFPPFFD [PRKX] | 2.99 ± 0.42 | 2.78 ± 0.57
YETESETESEIESETDFETEPETA [GNAS] | 5.2 ± 0.17 | 5.22 ± 0.15
SDDAAAPALETQPQGDEEDIASRY [SMOC2] | 5.62 ± 0.18 | 5.47 ± 0.11
IIVTIMASQSLGSPMYFFLASLSF [OR4A15] | 3.29 ± 0.57 | 3.13 ± 0.2
IDHYVGIARDQTKSIVEKIQAKLP [RTN3] | 3.05 ± 0.074 | 3.22 ± 0.39
AVGDRQDGLREQLQAPVPPDSVPS [PBXIP1] | 5.33 ± 0.37 | 5.37 ± 0.18
PLTGDKDDEEVDTHFASQEFFSAN [ADAMTSL2] | 5.37 ± 0.11 | 5.45 ± 0.19
MAAESGELIGACEFMKDRLYFATL [CDC14A] | 2.53 ± 1.1 | 1.82 ± 0.46

Sequence | protein stability index (treatment: DMSO) | protein stability index (treatment: MLN4924 1 uM, 8 h)
TMGLRHLPVVNAVGEIVGIITRHN [CLCN6] | 2.47 ± 0.19 | 2.41 ± 0.12
THWAVGVCRDSVSRKGELTPLPET [TRIM39] | 2.96 ± 0.19 | 2.95 ± 0.23
DNDHKEAVGKMGFVVTMLKLIQKK [ZER1] | 2.21 ± 0.37 | 2.07 ± 0.34
RVKLISNKGTETDNDPSCVHPIIK [PHTF1] | 3.58 ± 0.16 | 3.83 ± 0.35
SKLASMSNDFKSVLEVRTENLKQQ [STX5] | 4.04 ± 0.28 | 4.21 ± 0.32
REALTRLQELCYQWLRPHVSTKEQ [ZSCAN9] | 1.99 ± 0.24 | 2.46 ± 0.32
VHPFVNYNSSRFGEGVERELFVRE [MYORG] | 3.09 ± 0.18 | 3 ± 0.37
KFSQNSHLIKHRRTHTGEQPYTCS [ZNF75A] | 2.93 ± 0.14 | 3 ± 0.34
EDEAGGRFVAFSGEGQSLRKKGRK [UFD1] | 5.51 ± 0.25 | 5.41 ± 0.46
FGYLGDRYNRKYLMCGGIAFWSLV [SPNS1] | 3.1 ± 0.51 | 2.75 ± 0.71
EKKDTITNDSLSLKPSWFDFGFAI [MIA2] | 2.46 ± 0.19 | 2.48 ± 0.19
LGALKPLPACEFEMGGSEGIVESI [NETO1] | 4.28 ± 0.2 | 4.31 ± 0.25
PTQGPETPRSPEGTTEAATQDGKE [PXN] | 5.62 ± 0.19 | 5.48 ± 0.22
IPQLEDVSNFLKERTGFSIRPVAG [TPH1] | 2.98 ± 0.34 | 2.98 ± 0.14
MTTDFDLSLDNSPLLQSIHQLDFV [TRIM9] | 2.7 ± 0.33 | 2.71 ± 0.24
RLKCRSFKWYLENVYPEMRVYNNT [GALNT9] | 2.42 ± 0.17 | 2.19 ± 0.2
LSSNREAHQHRDKMQQSKNQVVSS [CSNK1G3] | 4.72 ± 0.21 | 4.81 ± 0.37
LCGENFSHRSNLIRHQRIHTGEKP [ZNF263] | 3.91 ± 0.17 | 3.72 ± 0.22
AVETRLSLLNMTFMKYVDSNLCCF [FBXO28] | 2.99 ± 1.8 | 2.57 ± 1.3
LEKEREKEISDDEAEEEKGEKEEE [HSP90AB1] | 5.66 ± 0.34 | 5.74 ± 0.21
SFDYEQFHELQMQVTASDSGDPPL [PCDHGA10] | 4.89 ± 0.21 | 4.9 ± 0.15
CSSKRSSYPVMGFEFQVRVCDSCY [WDFY1] | 2.66 ± 0.9 | 2.32 ± 0.23
PENLLLASKCKGAAVKLADFGLAI [CAMK2B] | 2.33 ± 0.31 | 2.56 ± 0.44

Sequence | protein stability index (treatment: DMSO) | protein stability index (treatment: MLN4924 1 uM, 8 h)
DAAIHGFRETEKSRWSEASRAILQ [ALKBH7] | 3.8 ± 0.51 | 3.83 ± 0.66
AKEKLESFIKNSDSFDKFEFCEPA [PCMTD1] | 4.06 ± 0.27 | 3.96 ± 0.31
ATETQALAQRTQQDSTRTVGERLQ [TEKT4] | 5.14 ± 0.43 | 5.43 ± 0.15
CESCVDLLFVRGAGNCPECGTPLR [MNAT1] | 4.27 ± 0.32 | 4.51 ± 0.17
KQNEKLNNQEEETEFKELDGLREA [CCDC89] | 5.51 ± 0.28 | 5.54 ± 0.3
FIIGELHPDDRPKLNKPPETLITT [CYB5A] | 2.73 ± 0.35 | 2.91 ± 0.4
ASEAFHWDERGRAAAYSPSEALLY [ANKRD9] | 3.37 ± 0.21 | 3.4 ± 0.4
PHYICTLKQPHLLLEKYSYYLISG [PNLIPRP1] | 2.78 ± 0.81 | 2.74 ± 0.69
NGEARQLPEDDGLEQDLQQVMVSG [ARFIP2] | 5.36 ± 0.22 | 5.49 ± 0.2
EETRVWHRRDGKWQNVHFHCSGAP [CAMK2B] | 3.1 ± 0.15 | 3.11 ± 0.32
PASGSGADSEPARHIFSFSWLNSL [TRIM55] | 2.36 ± 0.16 | 2.5 ± 0.21
LPSNLLKKFRSSTSSSLGDKSEYL [KCNA4] | 3.11 ± 0.084 | 3.23 ± 0.37
AKAELPKYKSFNRTAMPYGGYEKA [MYOZ1] | 3.22 ± 0.23 | 3.41 ± 0.24
PTMPQPIEKVSVSTQTKKLSASSP [ZMYND11] | 5.28 ± 0.18 | 5.24 ± 0.25
FENMSNDDAVRVLREIVHKPGPIT [DVL3] | 3.65 ± 0.15 | 3.7 ± 0.15
PERLCSGPGIVGNVLVDPSARIGQ [GMPPB] | 3.92 ± 0.27 | 3.89 ± 0.22
PSVEQAADSLDFDETFLATSFLQH [FOXJ1] | 4.43 ± 0.18 | 4.41 ± 0.4
SVSKAQSIYGIPHSTLEYKVKERL [LCOR] | 3.42 ± 0.43 | 3.54 ± 0.13
GIIVKDARLNGSVASYILASHNGI [TENT5D] | 2.66 ± 0.045 | 2.189 ± 0.003
GDLFNGRYHVIRKLGWGHFSTVWL [SRPK2] | 2.19 ± 0.07 | 2.17 ± 0.81
